Test results published in patent publication US20090098108A1.

How the values were obtained:
GLP-1 peptide = GLP-1 peptide (UniProt P01275)
[1] = target: wt GLP-1 mimetibody construct (GLP-1 MMB), IgG1 scaffold (UniProt P01275)
[2] = target: GLP-1 receptor on Rinm cells; assay: cell-based or functional assay

Sequence of wt GLP-1 mimetibody construct (GLP-1 MMB), IgG1 scaffold (P01275 whole entry, looked up): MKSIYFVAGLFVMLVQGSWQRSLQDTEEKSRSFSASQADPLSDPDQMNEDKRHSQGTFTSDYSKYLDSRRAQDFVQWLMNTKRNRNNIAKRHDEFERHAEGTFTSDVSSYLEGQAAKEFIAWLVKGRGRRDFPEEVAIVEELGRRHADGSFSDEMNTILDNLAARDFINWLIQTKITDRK
Sequence of GLP-1 peptide (P01275 98-127): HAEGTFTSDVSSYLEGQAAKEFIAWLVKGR

Substance	DPP-IV cleavage assay (intact peptide by GLP-1 Active ELISA) (GLP-1 peptide)	DPP-IV cleavage assay (intact MMB by GLP-1 Active ELISA) [1]	concentration dependent cAMP activity, EC50 (Rinm cells) [2]
DPP-IV (R&D Systems)	The GLP-1 MMB was significantly more resistant to cleavage by DPP-IV, relative to the GLP-1 peptide	The GLP-1 MMB was significantly more resistant to cleavage by DPP-IV, relative to the GLP-1 peptide	–
GLP-1 peptide (from UniProt P01275 98-127)	–	–	0.4 nM
wt GLP-1 mimetibody construct (GLP-1 MMB), IgG1 scaffold (from UniProt P01275 98-128) (Fc fusion)	–	–	11 nM
